This note sets out measurements from patent publication US20240352155A1 (CHIMAGEN BIOSCIENCES, published 2024).

Like-named read-outs stand apart in the source and are kept apart here.

The target of test [1] is T1, CD20 (stably transfected into K562 cells) (UniProt P11836 1-297, limits assumed).
T1 sequence (looked up): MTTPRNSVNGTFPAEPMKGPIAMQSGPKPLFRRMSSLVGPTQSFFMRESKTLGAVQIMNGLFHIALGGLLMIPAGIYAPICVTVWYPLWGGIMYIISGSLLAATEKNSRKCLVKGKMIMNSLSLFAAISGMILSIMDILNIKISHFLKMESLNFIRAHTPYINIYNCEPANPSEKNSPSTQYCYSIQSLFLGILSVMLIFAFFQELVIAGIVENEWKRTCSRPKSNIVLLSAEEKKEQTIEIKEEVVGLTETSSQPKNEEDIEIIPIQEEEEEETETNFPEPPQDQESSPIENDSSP
Kind of test: cell-based or functional assay.

In test [2] the target is T2, human CD3ε antigen (human, UniProt P07766 23-126).
T2 construct: Immobilized on the BIAcore chip; The construct (tag, limits) is not described
In words: BIAcore (SPR), antigen immobilized on chip, antibody injected at 5 concentrations. (In general: In SPR one partner is held on a chip, and binding of the other changes the refractive index at the surface.)

Test [3] addresses T3, human CD19 antigen (human, UniProt P15391 20-291).
T3 sequence (looked up): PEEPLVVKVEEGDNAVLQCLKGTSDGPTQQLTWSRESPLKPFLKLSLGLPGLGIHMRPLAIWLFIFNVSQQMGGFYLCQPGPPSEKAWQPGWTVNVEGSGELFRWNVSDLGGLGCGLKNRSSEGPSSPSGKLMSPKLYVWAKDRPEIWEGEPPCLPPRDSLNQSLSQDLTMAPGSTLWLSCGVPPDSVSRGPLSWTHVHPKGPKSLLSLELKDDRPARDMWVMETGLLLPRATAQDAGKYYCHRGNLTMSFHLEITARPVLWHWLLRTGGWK
Kind of test: BIAcore (SPR), CD19 captured on anti-His chip, antibody injected at 5 concentrations.

In test [4] the target is T2, human CD3ε antigen. In words: BIAcore (SPR), antigen immobilized on chip, antibody injected at 5 concentrations. This is another data set of the same source.
The target in test [5] is T3, human CD19 antigen. Kind of test: BIAcore (SPR), CD19 captured on anti-His chip, antibody injected at 5 concentrations. This is another data set of the same source.

T2 sequence (P07766 23-126): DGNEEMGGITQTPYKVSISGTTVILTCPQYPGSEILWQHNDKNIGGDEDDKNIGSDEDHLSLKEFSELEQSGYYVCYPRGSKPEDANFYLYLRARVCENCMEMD

B1: CD3XCD19XCD20 tri-specific antibody (antibody #1) (other)
chain 1: EIVLTQSPATLSVTPGERATLSCSASSSVSYMHWYQKKPGQAPRLLIYDTSKLASGIPARFSGSGSGTDFTLTISSLEPEDFAVYYCFQGSVYPFTFGCGTKLEIKRTVAAEVQLVESGGGLVQPGGSLRLSCAASGFTFSTYAMNWVRQAPGKGLEWVGRIRSKYNNYATYYADSVKGRFTISRDDSKNSLYLQMNSLRAEDTAVYYCVRHGNFGNSYVSWFAYWGQGTLVTVSS
chain 2: QAVVTQEPSLTVSPGGTVTLTCRSSTGAVTTSNYANWVQQKPGQAPRGLIGGTNKRAPWTPARFSGSLLGGKAALTLSGAQAEDEADYYCALWYSNLWVFGGGTKLTVLRTVAAQVQLQESGPGLVKPSQTLSLTCTVSGGSISTSGMGVGWIRDHPGKCLEWIGHIWWDDDKRYNPALKSRVTISVDTSKNQFSLKLSSVTAADTAVYYCARMELWSYYFDYWGQGTTLTVSSASEPKSSDKTHTCPPCPAPPVAGPSVFLFPPKPKDTLMISRTPEVTCVVVDVSQEDPEVKFNWYVDGVEVHNAKTKPREEQFNSTYRVVSVLTVLHQDWLNGKEYKCKVSNKGLPSSIEKTISKAKGQPREPQVYTLPPSRDELTKNQVSLWCLVKGFYPSDIAVEWESNGQPENNYKTTPPVLDSDGSFFLYSKLTVDKSRWQQGNVFSCSVMHEALHNHYTQKSLSLSP
heavy: QVQLVQSGAEVKKPGSSVKVSCKASGYAFSYSWINWVRQAPGQGLEWMGRIFPGDGDTDYNGKFKGRVTITADKSTSTAYMELSSLRSEDTAVYYCARNVFDGYWLVYWGQGTLVTVSSASTKGPSVFPLAPSSKSTSGGTAALGCLVKDYFPEPVTVSWNSGALTSGVHTFPAVLQSSGLYSLSSVVTVPSSSLGTQTYICNVNHKPSNTKVDKKVEPKSCDKTHTCPPCPAPPVAGPSVFLFPPKPKDTLMISRTPEVTCVVVDVSQEDPEVKFNWYVDGVEVHNAKTKPREEQFNSTYRVVSVLTVLHQDWLNGKEYKCKVSNKGLPSSIEKTISKAKGQPREPQVYTLPPSRDELTKNQVSLSCAVKGFYPSDIAVEWESNGQPENNYKTTPPVLDSDGSFFLVSKLTVDKSRWQQGNVFSCSVMHEALHNRFTQKSLSLSP
light: DIVMTQTPLSLPVTPGEPASISCRSSKSLLHSNGITYLYWYLQKPGQSPQLLIYQMSNLVSGVPDRFSGSGSGTDFTLKISRVEAEDVGVYYCAQNLELPYTFGGGTKVEIKRTVAAPSVFIFPPSDEQLKSGTASVVCLLNNFYPREAKVQWKVDNALQSGNSQESVTEQDSKDSTYSLSSTLTLSKADYEKHKVYACEVTHQGLSSPVTKSFNRGEC
notes: Tri-specific antibody of four polypeptide chains
B1: the “EC50 of killing of K562-CD20 target cells by PBMC effector cells (absorbance at OD490)” value in test [1] worked out at 0.00122 nM. Further, in the test with human CD3ε antigen [2], binding was characterised by a dissociation constant (Kd) of 25 nM, the koff is 0.00835 s⁻¹ and the association rate constant (kon) was 334000 M⁻¹ s⁻¹. In the test with human CD19 antigen [3], this molecule had a Kd of 1.32 nM, a koff of 0.000273 s⁻¹ and an on-rate (kon) of 207000 M⁻¹ s⁻¹.

B2: CD3XCD19 bispecific antibody (antibody A) (bispecific antibody)
chain 1: EIVLTQSPATLSVTPGERATLSCSASSSVSYMHWYQKKPGQAPRLLIYDTSKLASGIPARFSGSGSGTDFTLTISSLEPEDFAVYYCFQGSVYPFTFGCGTKLEIKRTVAAEVQLVESGGGLVQPGGSLRLSCAASGFTFNTYAMNWVRKAPGKGLEWVGRIRSKYNNYATYYADSVDKGRFTISRDDSKNSLYLQMNSLKTEDTAVYYCVRHGNFGNSYVSWFAYWGQGTLVTVSS
chain 2: EAVVTQEPSLTVSPGGTVTLTCRSSTGAVTTSNYANWVQDKPGQAPRGLIGGTNKRAPWTPARFSGSLLGGKAALTITGAQPEDEAEYYCALWYSNLWVFGGGTKLTVLRTVAAQVQLQESGPGLVKPSQTLSLTCTVSGGSISTSGMGVGWIRDHPGKCLEWIGHIWWDDDKRYNPALKSRVTISVDTSKNQFSLKLSSVTAADTAVYYCARMELWSYYFDYWGQGTTLTVSSASEPKSDKTHTCPPCPAPPVAGGPSVFLFPPKPKDTLMISRTPEVTCVVVDVSQEDPEVKFNWYVDGVEVHNAKTKPREEQFNSTYRVVSVLTVLHQDWLNGKEYKCKVSNKGLPSSIEKTISKAKGQPREPQVYTLPPCRDELTKNQVSLWCLVKGFYPSDIAVEWESNGQPENNYKTTPPVLDSDGSFFLYSKLTVDKSRWQQGNVFSCSVMHEALHNHYTQKSLSLSPGK
chain 3: DKTHTCPPCPAPPVAGGPSVFLFPPKPKDTLMISRTPEVTCVVVDVSQEDPEVKFNWYVDGVEVHNAKTKPREEQFNSTYRVVSVLTVLHQDWLNGKEYKCKVSNKGLPSSIEKTISKAKGQPREPQVCTLPPSRDELTKNQVSLSCAVKGFYPSDIAVEWESNGQPENNYKTTPPVLDSDGSFFLVSKLTVDKSRWQQGNVFSCSVMHEALHNRFTQKSLSLSPGK
notes: Three-polypeptide bispecific made in CHO3E7 cells; The description speaks of a disulfide bond between CD19 VL and VH, charge substitutions and a knob-in-hole Fc
In the test with human CD3ε antigen [4], B2 gave a Kd of 31.4 nM, a koff of 0.0153 s⁻¹ and a kon of 488000 M⁻¹ s⁻¹. In the test with human CD19 antigen [5], this molecule yielded a Kd of 1.83 nM, an off-rate (koff) of 0.000669 s⁻¹ and an on-rate constant (kon) of 365000 M⁻¹ s⁻¹.

A word on the Kd: it is the free concentration of one partner at which half of the binding sites on the other are occupied at equilibrium, for simple one-to-one binding. The low end stands for higher affinity, the high end for lower affinity. By koff is commonly meant the first-order rate constant of dissociation. A high value points to a short-lived complex. The kon is a measure of how fast the partners come together.
